Data: patent US7951595B2, “Methods for screening modulators of SLC17-type anion transport activity” (National University Corporation Okayama University, priority 2007, dated 2011)

T1: human SLC17A9 (Homo sapiens, UniProt Q9BYT1, N228S)
T1 construct: His6 (from pDEST10 vector); made in house; host or cells: insect cells, baculovirus system (Sf9 named for virus production)
T1 sequence (Q9BYT1 1-430 isoform Q9BYT1-2 N222S): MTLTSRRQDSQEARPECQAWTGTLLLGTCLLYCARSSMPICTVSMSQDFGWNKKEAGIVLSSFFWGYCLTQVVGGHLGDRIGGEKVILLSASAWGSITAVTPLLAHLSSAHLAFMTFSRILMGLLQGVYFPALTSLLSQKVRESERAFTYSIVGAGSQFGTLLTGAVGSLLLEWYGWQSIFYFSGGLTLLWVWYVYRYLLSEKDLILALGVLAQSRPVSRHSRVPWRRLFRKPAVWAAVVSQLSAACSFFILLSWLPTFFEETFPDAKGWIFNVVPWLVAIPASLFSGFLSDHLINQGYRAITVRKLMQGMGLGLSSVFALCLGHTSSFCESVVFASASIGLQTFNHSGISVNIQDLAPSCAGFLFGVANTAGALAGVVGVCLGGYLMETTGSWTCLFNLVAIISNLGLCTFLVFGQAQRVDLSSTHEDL

B1: VGLUT3: SLC17 family transporter protein, gene SLC17A8 (protein, UniProt Q8NDX2 1-589, looked up)
Vesicular glutamate …: MPFKAFDTFKEKILKPGKEGVKNAVGDSLGILQRKIDGTTEEEDNIELNEEGRPVQTSRPSPPLCDCHCCGLPKRYIIAIMSGLGFCISFGIRCNLGVAIVEMVNNSTVYVDGKPEIQTAQFNWDPETVGLIHGSFFWGYIMTQIPGGFISNKFAANRVFGAAIFLTSTLNMFIPSAARVHYGCVMCVRILQGLVEGVTYPACHGMWSKWAPPLERSRLATTSFCGSYAGAVVAMPLAGVLVQYIGWSSVFYIYGMFGIIWYMFWLLQAYECPAAHPTISNEEKTYIETSIGEGANVVSLSKFSTPWKRFFTSLPVYAIIVANFCRSWTFYLLLISQPAYFEEVFGFAISKVGLLSAVPHMVMTIVVPIGGQLADYLRSRQILTTTAVRKIMNCGGFGMEATLLLVVGFSHTKGVAISFLVLAVGFSGFAISGFNVNHLDIAPRYASILMGISNGVGTLSGMVCPLIVGAMTRHKTREEWQNVFLIAALVHYSGVIFYGVFASGEKQEWADPENLSEEKCGIIDQDELAEEIELNHESFASPKKKMSYGATSQNCEVQKKEWKGQRGATLDEEELTSYQNEERNFSTIS
B2: VGLUT2: SLC17 family transporter protein, gene SLC17A6 (protein, UniProt Q9P2U8 1-582, looked up)
Vesicular glutamate …: MESVKQRILAPGKEGLKNFAGKSLGQIYRVLEKKQDTGETIELTEDGKPLEVPERKAPLCDCTCFGLPRRYIIAIMSGLGFCISFGIRCNLGVAIVDMVNNSTIHRGGKVIKEKAKFNWDPETVGMIHGSFFWGYIITQIPGGYIASRLAANRVFGAAILLTSTLNMLIPSAARVHYGCVIFVRILQGLVEGVTYPACHGIWSKWAPPLERSRLATTSFCGSYAGAVIAMPLAGILVQYTGWSSVFYVYGSFGMVWYMFWLLVSYESPAKHPTITDEERRYIEESIGESANLLGAMEKFKTPWRKFFTSMPVYAIIVANFCRSWTFYLLLISQPAYFEEVFGFEISKVGMLSAVPHLVMTIIVPIGGQIADFLRSKQILSTTTVRKIMNCGGFGMEATLLLVVGYSHTRGVAISFLVLAVGFSGFAISGFNVNHLDIAPRYASILMGISNGVGTLSGMVCPIIVGAMTKNKSREEWQYVFLIAALVHYGGVIFYAIFASGEKQPWADPEETSEEKCGFIHEDELDEETGDITQNYINYGTTKSYGATTQANGGWPSGWEKKEEFVQGEVQDSHSYKDRVDYS
B3: SLC17A9 protein: purified SLC17A9 membrane protein, vesicular nucleotide transporter (protein, UniProt Q9BYT1 1-436, looked up)
Voltage-gated purine …: MQPPPDEARRDMAGDTQWSRPECQAWTGTLLLGTCLLYCARSSMPICTVSMSQDFGWNKKEAGIVLSSFFWGYCLTQVVGGHLGDRIGGEKVILLSASAWGSITAVTPLLAHLSSAHLAFMTFSRILMGLLQGVYFPALTSLLSQKVRESERAFTYSIVGAGSQFGTLLTGAVGSLLLEWYGWQSIFYFSGGLTLLWVWYVYRYLLSEKDLILALGVLAQSRPVSRHNRVPWRRLFRKPAVWAAVVSQLSAACSFFILLSWLPTFFEETFPDAKGWIFNVVPWLVAIPASLFSGFLSDHLINQGYRAITVRKLMQGMGLGLSSVFALCLGHTSSFCESVVFASASIGLQTFNHSGISVNIQDLAPSCAGFLFGVANTAGALAGVVGVCLGGYLMETTGSWTCLFNLVAIISNLGLCTFLVFGQAQRVDLSSTHEDL
B4: NPT1: SLC17 family transporter protein, gene SLC17A1 (protein, UniProt Q14916 1-467, looked up)
Sodium-dependent phosphate …: MQMDNRLPPKKVPGFCSFRYGLSFLVHCCNVIITAQRACLNLTMVVMVNSTDPHGLPNTSTKKLLDNIKNPMYNWSPDIQGIILSSTSYGVIIIQVPVGYFSGIYSTKKMIGFALCLSSVLSLLIPPAAGIGVAWVVVCRAVQGAAQGIVATAQFEIYVKWAPPLERGRLTSMSTSGFLLGPFIVLLVTGVICESLGWPMVFYIFGACGCAVCLLWFVLFYDDPKDHPCISISEKEYITSSLVQQVSSSRQSLPIKAILKSLPVWAISTGSFTFFWSHNIMTLYTPMFINSMLHVNIKENGFLSSLPYLFAWICGNLAGQLSDFFLTRNILSVIAVRKLFTAAGFLLPAIFGVCLPYLSSTFYSIVIFLILAGATGSFCLGGVFINGLDIAPRYFGFIKACSTLTGMIGGLIASTLTGLILKQDPESAWFKTFILMAAINVTGLIFYLIVATAEIQDWAKEKQHTRL
B5: Sialin: SLC17 family transporter protein, gene SLC17A5 (protein, UniProt Q9NRA2 1-495, looked up)
Sialin: MRSPVRDLARNDGEESTDRTPLLPGAPRAEAAPVCCSARYNLAILAFFGFFIVYALRVNLSVALVDMVDSNTTLEDNRTSKACPEHSAPIKVHHNQTGKKYQWDAETQGWILGSFFYGYIITQIPGGYVASKIGGKMLLGFGILGTAVLTLFTPIAADLGVGPLIVLRALEGLGEGVTFPAMHAMWSSWAPPLERSKLLSISYAGAQLGTVISLPLSGIICYYMNWTYVFYFFGTIGIFWFLLWIWLVSDTPQKHKRISHYEKEYILSSLRNQLSSQKSVPWVPILKSLPLWAIVVAHFSYNWTFYTLLTLLPTYMKEILRFNVQENGFLSSLPYLGSWLCMILSGQAADNLRAKWNFSTLCVRRIFSLIGMIGPAVFLVAAGFIGCDYSLAVAFLTISTTLGGFCSSGFSINHLDIAPSYAGILLGITNTFATIPGMVGPVIAKSLTPDNTVGEWQTVFYIAAAINVFGAIFFTLFAKGEVQNWALNDHHGHRH
B6: VGLUT1: SLC17 family transporter protein, gene SLC17A7 (protein, UniProt Q9P2U7 1-560, looked up)
Vesicular glutamate …: MEFRQEEFRKLAGRALGKLHRLLEKRQEGAETLELSADGRPVTTQTRDPPVVDCTCFGLPRRYIIAIMSGLGFCISFGIRCNLGVAIVSMVNNSTTHRGGHVVVQKAQFSWDPETVGLIHGSFFWGYIVTQIPGGFICQKFAANRVFGFAIVATSTLNMLIPSAARVHYGCVIFVRILQGLVEGVTYPACHGIWSKWAPPLERSRLATTAFCGSYAGAVVAMPLAGVLVQYSGWSSVFYVYGSFGIFWYLFWLLVSYESPALHPSISEEERKYIEDAIGESAKLMNPLTKFSTPWRRFFTSMPVYAIIVANFCRSWTFYLLLISQPAYFEEVFGFEISKVGLVSALPHLVMTIIVPIGGQIADFLRSRRIMSTTNVRKLMNCGGFGMEATLLLVVGYSHSKGVAISFLVLAVGFSGFAISGFNVNHLDIAPRYASILMGISNGVGTLSGMVCPIIVGAMTKHKTREEWQYVFLIASLVHYGGVIFYGVFASGEKQPWAEPEEMSEEKCGFVGHDQLAGSDDSEMEDEAEPPGAPPAPPPSYGATHSTFQPPRPPPPVRDY

Tests used:
human SLC17A9 = molecular target: T1, human SLC17A9; experiment: Nucleotide transport by human SLC17A9 reconstituted proteoliposomes (valinomycin-induced membrane potential, radiolabelled substrate); format: biochemical
Method: (§1) 10 μg of purified SLC17A9 and 0.5 mg of soybean-derived lipids were mixed and incubated at −80° C. for 5 minutes or more. The mixture was thawed quickly by holding the tube in the hands, and was diluted 60-fold with a buffer solution containing 20 mM MOPS-Tris (pH 7.0), 0.15M sodium acetate, 2 mM magnesium acetate and 0.5 mM DTT. This dilution was centrifuged at 200,000×g at 4° C. for one hour, the supernatant was discarded, and the precipitate was resuspended in a buffer solution containing 20 mM MOPS-Tris (pH 7.0), 0.15M sodium acetate, 2 mM magnesium acetate and 0.5 mM DTT, to obtain SLC17A9 reconstituted proteoliposomes. As a control, liposomes without SLC17A9 were used.
The nucleotide transport activity was measured by the following procedure. The reconstituted proteoliposomes were incubated in a buffer solution containing 20 mM MOPS-Tris (pH 7.0), 0.15M potassium acetate, 2 mM magnesium acetate and 4 mM potassium chloride, at 27° C. for 2 minutes, and valinomycin was added thereto to a final concentration of 2 μM. The mixture was incubated for further 2 minutes. The point of addition of 0.1 mM [α-^32P]ATP (3.7 GBq/mmol) was defined as the initiation of activity measurement. At a predetermined time point, 130 μL of the reaction liquid was recovered and centrifuged through a Sephadex G-50 (fine) spin column at 760×g for 2 minutes. The uptake of ATP was measured by measuring the radioactivity included in the reaction liquid that had passed through the column using a liquid scintillation counter. In the measurement of the transport activity for ADP and GTP, [2,8-^3H]ADP (0.37 GBq/mmol) and [α-^32P]GTP (3.7 GBq/mmol) were used instead of ATP as the substrate.
In an experiment for an inhibitor, a predetermined concentration of an inhibitor was added upon incubation of the proteoliposomes.

[1] = tested on: SLC17 family transporter proteins; experiment: ATP uptake by other SLC17 family proteins reconstituted like SLC17A9; format: biochemical; details: 0.1 mM [α-32P]ATP, uptake after 2 minutes, relative to SLC17A9 protein
Method: as §1
The nucleotide transport activity was measured by the following procedure. The reconstituted proteoliposomes were incubated in a buffer solution containing 20 mM MOPS-Tris (pH 7.0), 0.15M potassium acetate, 2 mM magnesium acetate and 4 mM potassium chloride, at 27° C. for 2 minutes, and valinomycin was added thereto to a final concentration of 2 μM. The mixture was incubated for further 2 minutes. […] At a predetermined time point, 130 μL of the reaction liquid was recovered and centrifuged through a Sephadex G-50 (fine) spin column at 760×g for 2 minutes.
Each of the transporter proteins that belong to the SLC17 family was purified in the same manner as in the case of SLC17A9, and was reconstituted according to the technique of Example 11.

Molecule	ATP Transport (%) [1] [%]	other results
Cc1cc(-c2ccc(/N=N/c3ccc4c(S(=O)(=O)O)cc(S(=O)(=O)O)c(N)c4c3O)c(C)c2)ccc1/N=N/c1ccc2c(S(=O)(=O)O)cc(S(=O)(=O)O)c(N)c2c1O [Evans Blue]		IC50 (human SLC17A9; SLC17A9 reconstituted proteoliposomes, FIG. 17B): 40 nM
C=C1[C@@H]2CC[C@H]3[C@]4(C)C[C@H](O[C@@H]5O[C@H](CO)[C@@H](OS(=O)(=O)O)[C@H](OS(=O)(=O)O)[C@H]5OC(=O)CC(C)C)C[C@@H](C(=O)O)[C@H]4CC[C@]3(C2)[C@H]1O [atractyloside]		effect of addition on the ATP uptake (human SLC17A9; atractyloside 200 μM, with or without Mg2+, FIG. 17(C)): Only when Mg^2+ was present, the ATP uptake was inhibited
Cl [chloride ions]		chloride ion concentration at which ATP uptake activity reached a steady state (human SLC17A9; chloride ions at various concentrations, FIG. 14): 4 mM
CC(C)[C@@H]1NC(=O)[C@H](C)OC(=O)[C@@H](C(C)C)NC(=O)[C@@H](C(C)C)OC(=O)[C@H](C(C)C)NC(=O)[C@H](C)OC(=O)[C@@H](C(C)C)NC(=O)[C@@H](C(C)C)OC(=O)[C@H](C(C)C)NC(=O)[C@H](C)OC(=O)[C@@H](C(C)C)NC(=O)[C@@H](C(C)C)OC1=O [valinomycin]		effect on uptake of radioactive ATP (human SLC17A9; ATP 100 μM, valinomycin 2 μM, FIG. 13(B)): activated
B1	7.1 ± 2.1	
B2	0.1 ± 0.2	
B3	100.0	
B4	2.0 ± 1.1	
B5	2.1 ± 0.8	
B6	1.7 ± 0.7	
